Data taken from PMC11461855 (Nature Communications, 2024).

Molecular target: T1, mMED15-FLAG (Flag-tagged mouse Med15) (mouse, UniProt Q924H2 1-789)
T1 sequence: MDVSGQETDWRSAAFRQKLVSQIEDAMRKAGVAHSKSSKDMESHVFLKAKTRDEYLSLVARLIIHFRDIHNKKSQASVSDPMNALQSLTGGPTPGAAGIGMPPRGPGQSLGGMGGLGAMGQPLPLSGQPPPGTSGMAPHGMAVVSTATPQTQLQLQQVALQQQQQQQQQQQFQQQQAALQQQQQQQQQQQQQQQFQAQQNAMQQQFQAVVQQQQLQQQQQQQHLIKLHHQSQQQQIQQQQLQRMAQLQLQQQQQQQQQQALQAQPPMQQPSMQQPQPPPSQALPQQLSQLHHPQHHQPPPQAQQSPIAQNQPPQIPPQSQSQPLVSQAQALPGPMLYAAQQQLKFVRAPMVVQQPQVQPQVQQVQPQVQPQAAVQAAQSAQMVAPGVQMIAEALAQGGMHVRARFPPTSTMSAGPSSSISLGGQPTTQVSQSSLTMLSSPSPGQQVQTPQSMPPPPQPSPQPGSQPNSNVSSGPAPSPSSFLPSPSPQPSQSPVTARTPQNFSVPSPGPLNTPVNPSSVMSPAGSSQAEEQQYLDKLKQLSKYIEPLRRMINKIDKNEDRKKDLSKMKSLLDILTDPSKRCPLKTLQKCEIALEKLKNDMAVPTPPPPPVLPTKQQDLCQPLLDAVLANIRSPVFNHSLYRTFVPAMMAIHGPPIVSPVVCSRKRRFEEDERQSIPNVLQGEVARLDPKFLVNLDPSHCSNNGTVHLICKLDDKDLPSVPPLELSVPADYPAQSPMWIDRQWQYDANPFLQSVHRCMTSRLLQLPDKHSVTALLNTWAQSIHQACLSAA
Experiment: pull-down

B1: HA-mNKX6.1 (HA-tagged full-length mouse Nkx6-1) (natural protein)
chain: MLAVGAMEGPRQSAFLLSSPPLAALHSMAEMKTPLYPAAYPPLPTGPPSSSSSSSSSSSPSPPLGSHNPGGLKPPAAGGLSSLGSPPQQLSAATPHGINDILSRPSMPVASGAALPSASPSGSSSSSSSSASATSASAAAAAAAAAAAAAASSPAGLLAGLPRFSSLSPPPPPPGLYFSPSAAAVAAVGRYPKPLAELPGRTPIFWPGVMQSPPWRDARLACTPHQGSILLDKDGKRKHTRPTFSGQQIFALEKTFEQTKYLAGPERARLAYSLGMTESQVKVWFQNRRTKWRKKHAAEMATAKKKQDSETERLKGTSENEEDDDDYNKPLDPNSDDEKITQLLKKHKSSGGSLLLHASEAEGSS
- binding result: binds
